Test results taken from article PMC11780864, “RNA G-quadruplex structure-based PROTACs for targeted DHX36 protein degradation and gene activity modulation in mammalian cells”.

T1: RHAU53 peptide (DHX36 fragment) (UniProt Q9H2U1)
T1 chain: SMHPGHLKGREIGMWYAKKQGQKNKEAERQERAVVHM


Key:
[1] = target: T1, RHAU53 peptide (DHX36 fragment); assay: EMSA; Kd1, first shift; EMSA and MST: 25 mM Tris-HCl pH 7.5, 150 mM KCl, 1 mM MgCl2, 37 C 30 min; 30 nM (EMSA) or 40 nM (MST) FAM-oligo; EMSA gel 10% native PAGE, 0.5x TBE, 4 C; details: label: 3'-FAM; G4
[2] = target: T1, RHAU53 peptide (DHX36 fragment); assay: competition; EMSA vs 30 nM FAM_dG4_A, 100 nM RHAU53; EMSA and MST: 25 mM Tris-HCl pH 7.5, 150 mM KCl, 1 mM MgCl2, 37 C 30 min; 30 nM (EMSA) or 40 nM (MST) FAM-oligo; EMSA gel 10% native PAGE, 0.5x TBE, 4 C; details: G4
[3] = target: T1, RHAU53 peptide (DHX36 fragment); assay: EMSA; EMSA and MST: 25 mM Tris-HCl pH 7.5, 150 mM KCl, 1 mM MgCl2, 37 C 30 min; 30 nM (EMSA) or 40 nM (MST) FAM-oligo; EMSA gel 10% native PAGE, 0.5x TBE, 4 C; details: label: 3'-FAM; for binding result: non-G4

Binder | Kd [1] [nM] | other results
GGGUUGCGGAGGGUGGGCCU (structured_RNA, 5'-hexynyl clicked to AHPC-PEG2 (VHL ligand)) [FAM_rG4_A_PEG2 (FAM_rG4_A)] | 67.5 ± 13.2 | 
GGGUUGCGGAGGGUGGGCCU (structured_RNA, 5'-hexynyl clicked to AHPC-C6) [FAM_rG4_A_C6] | 70.3 ± 9.3 | 
GGGUUGCGGAGGGUGGGCCU (structured_RNA, 5'-hexynyl clicked to AHPC-PEG2) [rG4_A (unlabelled)] |  | IC50 [2]: 176.8 ± 1 nM
GAGUUGCGGAGAGUGAGCCU (ssRNA, 5'-hexynyl clicked to AHPC-PEG2) [FAM_rG4 mut_A] |  | binding result [3]: no binding
TTGTGTGTGTGTGTGTGT (ssDNA, 5'-hexynyl clicked to AHPC-PEG2) [FAM_dG4 mut_A] |  | binding result [3]: no binding
GGGUUGCGGAGGGUGGGCCU (structured_RNA, 5'-hexynyl clicked to pomalidomide-PEG2) [FAM_rG4_P_PEG2] | 132 ± 25.5 | 
GGGUUGCGGAGGGUGGGCCU (structured_RNA, 5'-hexynyl clicked to pomalidomide-C6) [FAM_rG4_P_C6] | 160 ± 26.2 | 
GGGUUGCGGAGGGUGGGCCU (structured_RNA, 5'-hexynyl clicked to pomalidomide-PEG1-C2) [FAM_rG4_P_PEG1-C2] | 174 ± 35.3 | 
GGGUUGCGGAGGGUGGGCCU (structured_RNA, 5'-hexynyl) [FAM_rG4 (5' Hexynyl_hTERC rG4 WT_3' FAM)] |  | Kd ([3]; G4): 66.7 ± 16.5 nM
TTGGGTGGGTGGGTGGGT (structured_DNA, 5'-hexynyl clicked to AHPC-PEG2) [FAM_dG4_A (T95-2T)] | 317 ± 45.1 | 
